The nanobody polyreactivity screen of Harvey et al. (2022)

Assay: yeast display, Sf9 membrane polyspecificity reagent, FACS + sequencing; frameworks hold sequencing errors
How it was run: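 Galactose induction of a Saccharomyces cerevisiae BJ5465 synthetic nanobody display library ran 36–48 hours. The cells were then stained for 1 hour at 4 °C with 10% biotinylated, detergent-solubilized Sf9 membrane reagent, pulled down on streptavidin microbeads and FACS-sorted into low and high (top ~1%) gates on expression and reagent-binding fluorescence. Labels for polyreactivity follow the gate of origin.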

Sequence | polyreactivity (PSR sort gate)
QVQLVESGGGLVQAGGSLRLSCAASGSTFDVYAMGWYRQAPGKERELVAAITWIGGSTYYADSVKGRFTISRDNAKNTVYLQMNSLKPDDTAVYYCARHDYGWVDYWGQGTQVTVSS | high polyreactivity
QVQLVESGGGLVQAGGSLRLSCAASGTTFVHYAMGWYRQAPGKERELVAAISSSGDSTYYADSVKGRFTISRDKAKNTVYLQMNSLKPEDTAVYYCAVRSRTPRAYYYWGQGTQVTVSS | low polyreactivity
QVQLVESGGGLVQAGGSLRLSCAASGSIFVIYTMGWYRQAPGKERELVAVITWSTGNTYYADSVKGRFTISRDNAKNTVYLQMNSLKPEDTAVYYCAARTTSRWRSGAYYYWGQGTQVTVSS | high polyreactivity
QVQLVESGGGLVQAGGSLRLSCAASGLIFTSYAMGWYRHAPGKERELVAAISTSGGRTYYADSVKGRFTISRDNAKNTVYVQMNSLKAEDTAVYYCYANWRYPYDYWGQGTQVTVSS | high polyreactivity
QVQLVESGGGLVQAGGSLRLSCAASGYILTHYAMGWYRQAPGKERELVAAITSSGGSTYYADSVKGRFTISRDNAKNTVYLQMNSLKPEDTAVYYCAADAGQQEYDYWGQGTQVTVSS | low polyreactivity
QVQLVDSGRGLVQAGGSLRLSCAASGSIFGKYAMGWYREAPGKERELVAAISKGGGRTSYADSVKGRFTISRDNAKNTVYLQMNSLKPEDTAVYYCNVAQNYWAGLYDYWGQGTQVTVSS | high polyreactivity
QVQLVESGGGLVQAGGSLRLSCAASGFTIYRYAMGWYRQAPGKERELVAAISSIGGSTYYADSVKGRFTISRDNSKNTVYLQMNSLKPEDTAVYYCAAAISLYSYDYWGQGTQVTVSS | low polyreactivity
QVQLVESGGGLVQAGGSLRLSCAASGRTFGKYAMGWYIQAPGKEREFVAAISRSGGNTYYADSVKGRFTISRDNAKNTVYLQMNSLKPEDTAVYYCARGLSTYVLSHGLEYRTYYYWGQGTQVTVTS | high polyreactivity
QVQLVETGGGLVQAGGSLRLSCAASGRIFLGYAMGCYRQAPGKERELVAAISGRGGRTNYADSVKGRFTISRDNAKNTVYLQMNSLKPEDTAVYYCATVPYTASRYEYWGQGTQVTVSS | high polyreactivity
QVQLVESGGGLVQAGGSLRLSCAASGITFSRNAMGWYRQAPGTDRELGAVISTRGGRTYYADSVKGRFTISRDNAKNTVYLQMNSLKPEDTAVYYCAASPDPYWRRMDYWGQGTQVTVSS | high polyreactivity
QVQLVESGGGLVQAGGSLRLSCAASGSIFRRYAMGWYGQAPGKERELVAAISWSGGSTYYADSVKGRFTISRDNAKNTVYLQMNSLKPEDTAVYYCAARHRQQKLDYWGQGTQVTVSS | high polyreactivity
QVQLVESGGGLVQAGGSLRLSCAASGRTLVSYAMGWYRQAPGKERELVATISWSGGSTYYADSVKGRFTISRDNAKNTVYLQMYSLKPEDTAVYYCNRSLTGYDELGYPVPYTYDYWGQATQVTVSS | low polyreactivity
QVQLVESGGGLVQAGGSLRLSCAASGFIFSYYAMGWYRPAPGKERELVAAITDSGGSTYYADSVKGRFTISRDNAKNSVYLQMNSLKPEYTAVYYCATEIEQTAEYDYLGQGTQVTVSS | low polyreactivity
QVQLVESGGGLVQAGGSLRLSCAASGSTILTYVMGWYRQAPGKERELVAAISYSGGRSYYADSVKGRFTISRDTAKNTVYLQMNSLKPEDTAVYYCAAYRVNKSSRTMDYWGQGTQVTVSS | high polyreactivity
QFQLEESGGGLVQAGGSLRLSCAASGNIFFTNAMGRYRQAPGNERELVATITFRGTSTYYADSVKGRFTISRDNAKNTVYLQMNCLKPEDTAVYYCTARYSVFHRARVNLLGWGLYYWGQGTQVTVSS | low polyreactivity
QVQLVESGGGLVQAGGSLRLICAATGFTFLFYDMGWYRQAPGKERALVAASTSDGSTYYADSVKGRFTISRDNAKNTVYLQMNSLKPEDTAVYYCNADEPDEAYLYQSDYWGQGTQVTVSS | low polyreactivity
QVQLVESGGGLVQAGGSLRLSCAASGSTFYLYAMGWYRQAPGKERELVAAISSGGRTNYADSVKGRFTISLDNAKNTVYLQINSLKPEDTAVYYCAARIQWPTWSLYYYWGQGSQVTVSS | high polyreactivity
